Values joined by “and” are separate entries in the source; they are usually repeats but may differ in a detail not shown here. Equal values may be shown once.
Legend:
AUC = molecular target: the molecule itself; assay: AUC
[1] = molecular target: M. tuberculosis maltokinase Pep2 (M. tuberculosis H37Rv, UniProt O07177 1-455); assay: SEC; settings: both partners purified
[2] = molecular target: T1, M. smegmatis TreS (recombinant) (M. smegmatis, UniProt A0R6E0 1-593); assay: SEC; M. smegmatis Pep2-K145A with M. smegmatis TreS (Figure S6B); conditions not given; settings: both partners purified
T1 sequence (looked up): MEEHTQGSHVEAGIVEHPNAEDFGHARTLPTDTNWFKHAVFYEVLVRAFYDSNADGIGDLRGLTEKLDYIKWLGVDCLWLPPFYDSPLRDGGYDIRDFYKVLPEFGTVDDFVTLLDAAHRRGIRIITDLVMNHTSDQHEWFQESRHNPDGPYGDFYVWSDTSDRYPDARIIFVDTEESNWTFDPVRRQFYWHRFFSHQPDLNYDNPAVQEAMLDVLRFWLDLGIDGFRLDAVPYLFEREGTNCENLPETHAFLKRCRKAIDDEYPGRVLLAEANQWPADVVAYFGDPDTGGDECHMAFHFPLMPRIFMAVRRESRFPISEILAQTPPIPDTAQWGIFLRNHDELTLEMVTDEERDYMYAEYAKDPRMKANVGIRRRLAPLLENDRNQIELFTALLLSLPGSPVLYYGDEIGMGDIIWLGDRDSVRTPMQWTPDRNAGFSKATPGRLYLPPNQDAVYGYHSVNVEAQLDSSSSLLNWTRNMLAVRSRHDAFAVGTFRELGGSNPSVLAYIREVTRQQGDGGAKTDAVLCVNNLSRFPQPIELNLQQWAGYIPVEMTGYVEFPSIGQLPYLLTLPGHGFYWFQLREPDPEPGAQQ

B1: M. tuberculosis trehalose synthase TreS (enzyme)
chain: MNEAEHSVEHPPVQGSHVEGGVVEHPDAKDFGSAAALPADPTWFKHAVFYEVLVRAFFDASADGSGDLRGLIDRLDYLQWLGIDCIWLPPFYDSPLRDGGYDIRDFYKVLPEFGTVDDFVALVDAAHRRGIRIITDLVMNHTSESHPWFQESRRDPDGPYGDYYVWSDTSERYTDARIIFVDTEESNWSFDPVRRQFYWHRFFSHQPDLNYDNPAVQEAMIDVIRFWLGLGIDGFRLDAVPYLFEREGTNCENLPETHAFLKRVRKVVDDEFPGRVLLAEANQWPGDVVEYFGDPNTGGDECHMAFHFPLMPRIFMAVRRESRFPISEIIAQTPPIPDMAQWGIFLRNHDELTLEMVTDEERDYMYAEYAKDPRMKANVGIRRRLAPLLDNDRNQIELFTALLLSLPGSPVLYYGDEIGMGDVIWLGDRDGVRIPMQWTPDRNAGFSTANPGRLYLPPSQDPVYGYQAVNVEAQRDTSTSLLNFTRTMLAVRRRHPAFAVGAFQELGGSNPSVLAYVRQVAGDDGDTVLCVNNLSRFPQPIELDLQQWTNYTPVELTGHVEFPRIGQVPYLLTLPGHGFYWFQLTTHEVGAPPTCGGERRL
AUC
  stoichiometry N: 4 and 8
[1]
  binding result: binds

B2: M. smegmatis Pep2-K145A (enzyme)
chain: not shown
[2]
  binding result: binds
